Assay [1] has as its target T1, mouse PTH1R overexpressed on CHO cells (mouse, UniProt P41593 27-591).
T1 sequence (looked up): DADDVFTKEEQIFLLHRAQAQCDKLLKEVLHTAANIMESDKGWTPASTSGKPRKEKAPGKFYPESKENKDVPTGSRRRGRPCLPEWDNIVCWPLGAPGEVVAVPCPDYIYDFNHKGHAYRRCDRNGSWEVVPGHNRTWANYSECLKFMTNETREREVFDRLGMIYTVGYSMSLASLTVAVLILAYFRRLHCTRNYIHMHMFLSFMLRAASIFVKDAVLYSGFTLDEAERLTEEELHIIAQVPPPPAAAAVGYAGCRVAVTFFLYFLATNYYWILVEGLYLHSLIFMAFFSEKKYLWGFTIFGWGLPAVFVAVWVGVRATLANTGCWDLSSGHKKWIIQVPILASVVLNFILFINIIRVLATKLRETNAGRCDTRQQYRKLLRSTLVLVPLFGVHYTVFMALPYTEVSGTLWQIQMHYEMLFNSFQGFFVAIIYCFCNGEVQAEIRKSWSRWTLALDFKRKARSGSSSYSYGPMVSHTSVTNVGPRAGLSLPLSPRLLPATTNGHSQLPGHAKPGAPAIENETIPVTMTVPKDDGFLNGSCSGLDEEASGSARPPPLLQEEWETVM
Kind of assay: cell-based or functional assay.

Assay [2] addresses T2, human PTH1R overexpressed on CHO cells (human, UniProt Q03431 27-593).
T2 sequence (looked up): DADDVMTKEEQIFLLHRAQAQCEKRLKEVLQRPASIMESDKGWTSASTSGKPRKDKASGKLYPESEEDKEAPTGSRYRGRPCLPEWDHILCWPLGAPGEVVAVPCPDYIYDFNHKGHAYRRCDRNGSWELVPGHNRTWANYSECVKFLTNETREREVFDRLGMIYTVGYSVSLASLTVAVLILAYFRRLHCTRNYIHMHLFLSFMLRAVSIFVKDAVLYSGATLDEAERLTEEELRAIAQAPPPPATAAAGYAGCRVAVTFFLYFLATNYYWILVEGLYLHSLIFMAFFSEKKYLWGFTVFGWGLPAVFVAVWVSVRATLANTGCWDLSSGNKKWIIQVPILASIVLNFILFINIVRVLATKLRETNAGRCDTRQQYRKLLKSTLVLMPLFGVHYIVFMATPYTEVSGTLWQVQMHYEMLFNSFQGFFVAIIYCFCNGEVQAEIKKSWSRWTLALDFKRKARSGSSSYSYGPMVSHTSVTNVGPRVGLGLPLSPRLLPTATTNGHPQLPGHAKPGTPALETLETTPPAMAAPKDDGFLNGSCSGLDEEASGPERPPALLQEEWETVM
Kind of assay: cell-based or functional assay.

In assay [3] the target is T3, rat PTH1R on UMR106 cells (rat, UniProt P25961 27-591).
T3 construct: whole, on cells; also called UMR106 (Endogenous Rat PTH1R); native rat PTH1R
T3 sequence (looked up): T1 sequence (looked up) with P58S, L497P, I518T, N520T, I523L, T528A
Kind of assay: flow cytometry, 1 hr at 4 C.

Assay [4] concerns the target T4, recombinant N-terminal extracellular domain of the human PTH1R receptor (human, UniProt Q03431 27-188, limits assumed).
T4 construct: domain: N-terminal extracellular domain; Bought reagent; also called N-ECD PTH1R; PTH1R N-terminal ECD
T4 sequence (looked up): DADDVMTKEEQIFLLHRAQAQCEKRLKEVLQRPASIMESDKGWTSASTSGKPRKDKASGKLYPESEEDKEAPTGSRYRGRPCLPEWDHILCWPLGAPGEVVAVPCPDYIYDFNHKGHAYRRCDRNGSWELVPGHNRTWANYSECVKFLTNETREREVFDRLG
Description: SPR, IgG captured, ECD injected. The method, then:
An anti-human IgG-Fc CMS sensor chip (GE Healthcare) was prepared using standard amine coupling as described by the manufacturer's protocol for the capture Ab on a BIACORE 4000 system (GE Healthcare). Briefly, the chip surface was activated with a 10 minute injection at 10 μL/minute of a freshly mixed 1:1 solution of 0.1 M N-Hydroxysuccinimide (NHS) and 0.4 M 1-Ethyl-3-(3-dimethylaminopropyl) carbodiimide hydrochloride (EDC). Following the activation injection, 15 ug/mL anti-human IgG-Fc antibody in acetate pH 4.5 was injected at 10 μL/minute for 10 minutes to achieve a high density capture surface. 7 minutes of 1M Ethanolamine hydrochloride-NaOH pH 8.5 was injected to block the surface. The NHS, EDC, and Ethanolamine used were from the BIACORE Amine Coupling Kit.
Kinetic Analysis was performed using HBS-EP+(Teknova) with 2.5 mg/mL BSA (Sigma Aldrich, St. Louis Mo.). Antibodies were diluted to 0.5 μg/mL and captured to achieve a surface density of 100 to 200 RU. […] Injections were performed at 30 μL/minute for 240 seconds with a 360 second dissociation time. Regeneration was then performed with one 60 second injection 3M MgCl.
The data were analyzed using BIACORE 4000 Evaluation Software and was double referenced by subtracting both the blank flow cell data and the averaged bracketing blank injections. The data was fit by simultaneously fitting the an off-rate (kd) and on-rate (kₐ), and calculating the KD as KD=kd/kₐ.
On the technique in general: SPR reads the build-up and loss of mass on a sensor chip optically.

Assay [5] addresses T5, human PTH1R on Saos-2 cells (endogenous) (human, UniProt Q03431 27-593).
T5 sequence (looked up): T2 sequence (looked up)
Kind of assay: cell-based or functional assay.

For assay [6], the target named is T1, mouse PTH1R overexpressed on CHO cells. Kind of assay: cell-based or functional assay. This is another data set of the same source.
Assay [7] addresses T2, human PTH1R overexpressed on CHO cells. Kind of assay: cell-based or functional assay. This is another data set of the same source.
In assay [8] the target is T3, rat PTH1R on UMR106 cells. Description: cell-based or functional assay.
In assay [9] the target is T1, mouse PTH1R overexpressed on CHO cells. Kind of assay: flow cytometry on CHO cells, 24 hr at 4 C. The method, then: (§1) To characterize antibody binding to PTH1R, cells were labeled with either CellTrace™ CFSE or CellTrace™ Violet. Unlabeled CHOK1 parent, CHO human PTH1R labeled with CellTrace™CFSE, and CHO mouse PTH1R labeled with CellTrace™Violet were pooled together and stained with increasing concentrations of antibody. Antibodies were incubated for 24 hr at 4° C. followed by two washes with FACS Buffer (0.5% BSA, 0.1% NaN3 in DPBS). Cells were then incubated with Allophycocyanin (APC) AffiniPure F(ab′)₂ Fragment Goat Anti-Human IgG (H+L) (Jackson ImmunoResearch, West Grove, Pa.) for 20 minutes at 4° C. Followed by two washes, cells were resuspended in FACS Buffer. Samples were acquired using BD Cytometer (BD Biosciences, San Jose, Calif.) and data were analyzed using FlowJo (FlowJo, LLC, Ashland, Oreg.) and Prism (GraphPad Software, La Jolla, Calif.).
Background: Flow cytometry measures light scatter and fluorescence of single cells or particles in a stream.

Assay [10] addresses T2, human PTH1R overexpressed on CHO cells. Description: flow cytometry on CHO cells, 24 hr at 4 C. The method, then: as §1

Positions count from the first letter of the chain named.

Six molecules from US20200317817A1 (XOMA US, published 2020) can be followed below.

B1: XPA.85.332 (antibody, V domains shown)
VH: QMQLVQSGAEVKKPGSSVKVSCKASGGTFSSYAISWVRQAPGQGLEWMGGIIPIFGTANYAQKFQGRVTITADESTSTAYMELSSLRSEDTAVYYCARGYVVARLWGQGTLVTVSS
VL: ETTLTQSPAFMSASVGDRVTITCQASQDINNFLNWYQQKPGKAPKFLIYDASNLEKGVPSKFSGRGSGTEFTLTISSLQPEDIATYYCQQYRDFPLTFGQGTRLEIK
notes: Light-chain-shuffled variant of XPA.85.012
In the case of B1, in [1], the “IC50, inhibition of PTHrP(1-34)-induced cAMP accumulation” value came to 2.3 nM. Moreover, in assay [2], the “IC50, inhibition of PTH(1-34)-induced cAMP accumulation” value was 12.1 nM and the “IC50, inhibition of PTHrP(1-34)-induced cAMP accumulation” value is 5.03 nM. In assay [3], the binding result is given as “binds”. In assay [4], the Kd (commonly the constant that tells how readily two partners part at equilibrium) was 0.71 nM; the koff (commonly a measure of how fast the partners let go of each other) was determined as 0.0017 s⁻¹; the kon (in general, the second-order rate constant of association) came out at 2.4e+06 M⁻¹ s⁻¹.

B2: XPA.85.340 (antibody, V domains shown)
VH: EVQLVETGGGVVRPGGSLRLSCAASGFTFSSSAMSWVRQTPGKELQWVSAITPGGEGTYYADVVKGRFTISRDNSKDTLYLQMDSLRAEDTAVYYCARDLYGSYGDAFDIWGQGTLVTVSS
VL: SYVLTQPPSVSVAPGQTASITCSGDNLGEKFVSWYQQKAGQSPVLVIFEDNKRPSGIPERFAGSNSGNRATLTIRGTQAEDEADYYCQAWDSSWVFGGGTQLTVL
notes: Light-chain-shuffled variant of XPA.85.017
For the molecule B2, the “EC50 of PTH(1-34), cAMP assay, with 267 nM IgG” value (shortened to “EC50 of PTH(1-34), cAMP assay”) stood at 4.17 nM in [5], 0.614 nM in [6], 0.404 nM in assay [7] and 8.1 nM in [8]. Also, the “EC50 of PTHrP(1-34), cAMP assay, with 267 nM IgG” value (“EC50 of PTHrP(1-34), cAMP assay” for short) in assay [5] worked out at 11.8 nM. Also, the EC50 (in general, the concentration that produces a half-maximal response) in assay [9] was determined as 0.322 nM; in assay [10], 0.167 nM. For the same molecule, the Kd in assay [4] came to 0.75 nM. The koff in [4] was found to be 0.0011 s⁻¹. The kon in assay [4] is 1.4e+06 M⁻¹ s⁻¹.

B3: XPA.85.337 (antibody, V domains shown)
VH: B2 VH
VL: SYVLTQPPSVSVAPGQTATITCSGDDFGDKYVSWYQQKPGQSPLLVIFQDNERPSGIPERFSGSNSGNTATLTISGTQAMDEADYYCQAWDSNWVFGGGTKVTVL
notes: as for B2
Turning to B3, the “EC50 of PTHrP(1-34), cAMP assay” value in assay [5] amounted to 27.1 nM. Also, the figures for the “EC50 of PTH(1-34), cAMP assay” value in [6], in [7] and in assay [8] were 0.219 nM, 0.107 nM and 2.88 nM, respectively. Further, the concentration for a half-maximal effect (EC50) in [9] came to 3.27 nM; in assay [10], 1.26 nM. Also, in assay [4], the Kd is 0.75 nM. Besides, in assay [4], the koff stood at 0.00046 s⁻¹. For the same molecule, the kon in [4] is 610000 M⁻¹ s⁻¹.

B4: XPA.85.336 (antibody, V domains shown)
VH: B2 VH
VL: QSVLTQPPSVSAAPGQKVTISCSGTGSNIGSNYVAWYQQLPGTAPKLLIYDDNKRPSGTPDRFSGSKSGTSATLVIAGLQTGDEADYYCGTWDNTLNVGGVFGGGTQLTVL
notes: as for B2
Consider B4, for which, in [5], the “EC50 of PTHrP(1-34), cAMP assay” value was 23.6 nM. Besides, in assay [6], the “EC50 of PTH(1-34), cAMP assay” value stood at 0.144 nM. Also, the “EC50 of PTH(1-34), cAMP assay” value in assay [7] came to 0.0181 nM. The molecule also came in with a concentration for a half-maximal effect (EC50) in assay [9] of 14.7 nM. For the same molecule, in assay [10], the EC50 was determined as 0.342 nM. In assay [4], the Kd amounted to 17 nM, the koff stood at 0.019 s⁻¹ and the kon is 1.1e+06 M⁻¹ s⁻¹.

B5: XPA.85.335 (antibody, V domains shown)
VH: B2 VH
VL: QSVLTQPPSVSAAPGQRVTISCSGNTSNIGNNFVSWYQQLPGTAPKLLIYDDNKRPSGIPDRFSGSKSGTSATLGISGLQTGDEADYYCGTWDNSLNPPWVFGGGTQLTVL
notes: as for B2
Turning to B5, the “EC50 of PTHrP(1-34), cAMP assay” value in [5] is 6.41 nM. For the same molecule, in assay [6], the “EC50 of PTH(1-34), cAMP assay” value was 4.54 nM. In assay [7], the “EC50 of PTH(1-34), cAMP assay” value amounted to 0.0429 nM. The molecule also yielded an EC50 in assay [9] of 0.384 nM. The molecule further yielded an EC50 in assay [10] of 0.265 nM. For the same molecule, in assay [4], the Kd was determined as 2.4 nM, the off-rate (koff) amounted to 0.0019 s⁻¹ and the association rate constant (kon) was found to be 800000 M⁻¹ s⁻¹.

B6: XPA.85.338 (antibody, V domains shown)
VH: B2 VH
VL: SYELTQPPSVSVAPGQTATITCSGDKLGDKYASWYQQKPGQSPVLVMFENRDRPSGIPDRFSGSNSGNTATLTISGTQAMDEADYYCQAWDSSTAWVFGGGTQLTVL
notes: as for B2
As for B6, the “EC50 of PTH(1-34), cAMP assay” value in assay [5] turned out to be 32.8 nM; in assay [6], 1.8 nM; in assay [7], 0.244 nM; in [8] it was 7.86 nM. In addition, the “EC50 of PTHrP(1-34), cAMP assay” value in assay [5] stood at 33 nM. The EC50 in assay [9] is 0.68 nM; in [10], 0.181 nM. Further, the Kd in assay [4] came out at 0.43 nM. For the same molecule, the off-rate (koff) in assay [4] was 0.00057 s⁻¹. Besides, the kon in assay [4] stood at 1.3e+06 M⁻¹ s⁻¹.
